Target: Xenopus laevis FANCD2, 6xHis-tagged (Xenopus laevis)

B1: Human FANCL URD-RING (109–375) hydrophobic patch mutant L248A, F252A, L254A, I265A (domain or fragment)
chain: QFYSSLIEEIGTLGWDKLVYADTCFSTIKLKAEDASGREHLITLKLKAKYPAESPDYFVDFPVPFCASWTPQSSLISIYSQFLAAIESLKAFWDVMDEIDEKTWVLEPEKPPRSATARRIALGNNVSINIEVDPRHPTMAPECAFAGADHVVKPLGAKLSRNIHLWDPENSVLQNLKDVLEIDFPARAILEKSDFTMDCGICYAYQLDGTIPDQVCDNSQCGQPFHQICLYEWLRGLLTSRQSFNIIFGECPYCSKPITLKMSGRKH
in vitro FANCD2 monoubiquitination (Ube1, Ube2T, FANCL URD-RING, fluorescently labelled ubiquitin, 10 min at 30°C), against WT FANCL: 47 % of WT
